Sequences and labels used below:
B1: Hairpin Ribozyme (parent)
chain: GUCCUCUUUCACGUGCGCGUGAAAGAGAGAAGUGAACCAGAGAAACACACGUUGUGGUAUAUUACCUGGUA

The results in this text go back to the RNAGym collection of RNA variant scans (doi:10.7554/elife.80360).

Variants of B1 are the subject of the series. As to the kind of experiment: self-cleavage, relative activity (ratio to wild type); higher = more cleavage; co-transcriptional.
On to GUCCUCUUUCACGUGCGCGUGAAAGAGAGAAGUGAACCAGAGAAACACACGUUGUGGUACAUUACCUGUUA, for which the self-cleavage was found to be 0.0645.
Under GUCCUCUUACACGUGAGCGUGAAAGAGAGAAGUGAACCAGAGAAACACACGUUGUGGUAUAUUACCUGGUA stands 0.626; under GUCCUCUUUCACGCGCGCGUGAAAGAGAGAAGUGAACCAGAGAAACACACGUUUUGGUAUAUUACCUGGUA, 0.541.
Under AUCCUCUUUCACGUGCGCGUGAACGAGAGAAGUGAACCAGAGAAACACACGUUGUGGUAUAUUACCUGGUA stands 0.18; under GUCCUCUUUCACGUGAGCGUGAAAGAGAGAAUUGAACCAGAGAAACACACGUUGUGGUAUAUUACCUGGUA, 0.226; under GUCCUCUUUCACGUGCGCGUGAAAGAGAGAAGUAAACCAGAGAAACACACGUUGUGGUAUAUUAGCUGGUA, 0.477.
Under GUCCUCUUUCACGUGCGCGUGAAAGAGAGAAGUGAACGAGAGAAACACACGUAGUGGUAUAUUACCUGGUA stands 0.185; under GUCCUCUUUCACGUGCGCGUGAAAGAGAGAAGUGAACCAGAGAAACAAACGUUGUGGAAUAUUACCUGGUA, 0.0644; under GUCCUCUUCCACGUGCGCGUGAAAGAGAGAAGUGAACCAGAGAAAUACACGUUGUGGUAUAUUACCUGGUA, 0.0512.
Regarding GUCGUCAUUCACGUGCGCGUGAAAGAGAGAAGUGAACCAGAGAAACACACGUUGUGGUAUAUUACCUGGUA, the self-cleavage was determined as 0.143.
The same measure for GUCCUCUUUCACGUGCGCGUGAAAGAGAGAAGUGAACCAGAGAAACACACCUUGUGUUAUAUUACCUGGUA: 0.204; for GUCCUCUUUCCCUUGCGCGUGAAAGAGAGAAGUGAACCAGAGAAACACACGUUGUGGUAUAUUACCUGGUA: 0.717.
Under GUCCUCUUUCACGUGCGCGUGAAAGAGAGAAGUGAACCAGAAAAACACACGUUGUGGUAUAUGACCUGGUA stands 0.193; under GUCCUCUUUCACGUGCGCGUAAAAGAGAGAAGUGAACCAGAGAAACACACGUUGUUGUAUAUUACCUGGUA, 0.185; under GUCCUCUUUCACGUGCGCGUGAAAGAGAGAAGUGAACCAGAGAAACUCACGCUGUGGUAUAUUACCUGGUA, 0.0664.
The same measure for GUCCUCUUUCACGUGCGCGUGAAUGAGAGAAGUGAACCAGAGAAACACACGUUGUGGUAGAUUACCUGGUA: 0.531.
On to GUCCUCUUUCACGUGCGGGUGAAAGAGAGAAGUGAACGAGAGAAACACACGUUGUGGUAUAUUACCUGGUA, for which the self-cleavage is 0.125.
Under GUCCUCAUUCACGUGCGCGUGAAAGAGAGCAGUGAACCAGAGAAACACACGUUGUGGUAUAUUACCUGGUA stands 0.121; under GUCCUCUUUCACGUGUGCGUAAAAGAGAGAAGUGAACCAGAGAAACACACGUUGUGGUAUAUUACCUGGUA, 0.843; under GUCCUCUUUCACGUUCGCGUGAAAGAGUGAAGUGAACCAGAGAAACACACGUUGUGGUAUAUUACCUGGUA, 0.765.
The same measure for GUCAUCUUUCACGUGCGCGUGAAAGAGAGAAGUGAACCAGAGAAACACACGUUGUGGUAUUUUACCUGGUA: 0.122; for GUCCUCUUUCACAUGCGCGUGAAAGAGAGAAGUGAACCAGAGAAACACACGUUGUGUUAUAUUACCUGGUA: 0.205; for GUCUUCUUUCACGUGCGCGUGAAAGAGAGAAGUGAACCAGAGAAACACACGUUGUGGUAUAUUACCUGGUG: 0.426.
Under GUCCUCUUUCACGUGCGCGUGCAAGAGAGAAGUGAACCAGAGAAACACACGUUUUGGUAUAUUACCUGGUA stands 0.514.
Turning to GUCCUCGUUCACGUGCGCGUGAAAGAGAGUAGUGAACCAGAGAAACACACGUUGUGGUAUAUUACCUGGUA, the self-cleavage is 0.0317.
Under GUCCUCUUUCACGUGCGCGUGAAAGAGAGAAGUCAACCAGAGAAACACACAUUGUGGUAUAUUACCUGGUA stands 1.61; under GUCCUCUUUGACGUGCGCGUGAAAGAGAGAAGUGAACCAGAGAAACACACGUUGGGGUAUAUUACCUGGUA, 0.195; under GUCCUCUUUCACGUGCGCGUGAAAGAGAGAAUUGAACCUGAGAAACACACGUUGUGGUAUAUUACCUGGUA, 0.125.
Under GUCCUCUUUCACGUGCGCGUGAAAGAGCGAAGUGAACCAGAGAAACACACGUUGUGGUAUAUUACCUCGUA stands 0.309; under GCCCUCUUUCACGUGCCCGUGAAAGAGAGAAGUGAACCAGAGAAACACACGUUGUGGUAUAUUACCUGGUA, 0.168.
Under GUCCUCUUUCACGUGCGCGUGAAAGAGAGAAUUGAACCAAAGAAACACACGUUGUGGUAUAUUACCUGGUA stands 0.122.
Consider GUCCUCUUUCACGUGCGCGUCAAAGAGAGAAGUGAACCAGAGAAACACACGUUGUGGUAUAUUACCUCGUA, for which the self-cleavage turned out to be 0.155.
Under GUCCUCUUACACGUGCGCGUGAAAGAGAGAAGUGAACCAGAGAAACACACGUUGUGGUAUAUUACCGGGUA stands 0.152.
The same measure for GUCCUCUUUCACGUGCGCGCGAAAGAGAGAAGUGAACCAGAGAAACACACGUUGUGGUAUAAUACCUGGUA: 0.202; for GUCCUCUUUCACGUGCGCGUGAAUGAGAGAAGUGAACCAGAGAACCACACGUUGUGGUAUAUUACCUGGUA: 0.179; for GUCCUCUUUCACGUGCGCGUGAAAGAGAGAAGUGAACGAGGGAAACACACGUUGUGGUAUAUUACCUGGUA: 0.618.
The same measure for GUCCUCUUUCACGUGCGCGUGAAAGAGAGAAGUGAACCAGAGAAACACCCGUUGUGGGAUAUUACCUGGUA: 0.286; for GUCCUCUUUCACGUGCGCGUGAAAGAGAGAAGUGAACCAGAUAAACACACAUUGUGGUAUAUUACCUGGUA: 0.191.
On to GGCCUCUUUCACGUGCGCGUGAAAGAGAGGAGUGAACCAGAGAAACACACGUUGUGGUAUAUUACCUGGUA, for which the self-cleavage is 0.0671.
The same measure for GUCCUCUUUCACGUGCGCGUGAAAGAGAGAAGUGAACCAGAGAAACACACGUUGUGUUAUAUUACCUGGUA: 0.273; for GUCCUCUUUCACGUGCGCGUGAAAGAGAGAAGUGAACCGGAGAACCACACGUUGUGGUAUAUUACCUGGUA: 0.122.
GUCCUCUUUCACGUGCACGUGAAAGAGAGAAGUGAACCAGAGAAACACACGUUGUGGUCUAUUACCUGGUA: the self-cleavage stood at 0.196.
Under GUCCUCUUUCACGUGCGCGUGAAAGAGAGAAGGGAACCCGAGAAACACACGUUGUGGUAUAUUACCUGGUA stands 0.149.
Under GUCCUCUUUGACGUGCGCGUGAAAGCGAGAAGUGAACCAGAGAAACACACGUUGUGGUAUAUUACCUGGUA stands 0.383; under GUCCUCUUUCACGUGCGCGUGAAAGAGACAAGUGAACCAGAGAAACACACGUUGGGGUAUAUUACCUGGUA, 0.0655.
The same measure for GUCCUGUUUCACGUGCGCGUGAAAGAGAGAAGUGAACAAGAGAAACACACGUUGUGGUAUAUUACCUGGUA: 0.103.
In the case of GUCCACUUUCACGUGCGCGUGAAAGCGAGAAGUGAACCAGAGAAACACACGUUGUGGUAUAUUACCUGGUA, the self-cleavage worked out at 0.491.
The same measure for GUCCUCUUUCACGUGCGCGUGAAAGGGAGAAGUGAACCAGAGAAACACAUGUUGUGGUAUAUUACCUGGUA: 0.347; for GUCCUCUUUCACGUGCGCGUGAAAGAGAGAAGCGAACCAGAGAAACACACGUUGUGGUAUAUUAUCUGGUA: 0.2; for GUCCUCUUUCAUGUGCGCGUGAAAGAGAGAAGUGAACCAGAGAAACGCACGUUGUGGUAUAUUACCUGGUA: 0.131.
Under GUCCUCUUUCACGUGCGCGUGAAAGAGAGAAGUGAACCAGAGAAACACACGUAGUGGUAUAUUCCCUGGUA stands 0.122; under GUCCUCUUUCACGUGCGCGUGAAAGAUAGAAGUGAACCAGAGAAACACACGUUGUGGUGUAUUACCUGGUA, 0.209.
The same measure for GUCCUCUUUCACGUGCGCGUGAAAGAGAGAAGUAAACCAGAGAAACACACGUUGUGGAAUAUUACCUGGUA: 1.09; for GUCCUCUUUCACGUGCGCGUGAAAGAGAGAAGUGAACCAGAUAAACACACGUUGUGGUAUAUUACCAGGUA: 0.151; for GUCCUCUUUCACGUGCGCGUGAAAGGGAGAAGUGAACCAGAGAUACACACGUUGUGGUAUAUUACCUGGUA: 0.103.
Turning to GUCCUUUUUCACGUGCGCGUGAAAGGGAGAAGUGAACCAGAGAAACACACGUUGUGGUAUAUUACCUGGUA, the self-cleavage came to 0.31.
Under GUCCUCUUUCACGUGCGCGUGAAAGAGAGAAGUGAACCCGACAAACACACGUUGUGGUAUAUUACCUGGUA stands 0.169; under GUCCUAUUUCUCGUGCGCGUGAAAGAGAGAAGUGAACCAGAGAAACACACGUUGUGGUAUAUUACCUGGUA, 0.399.
The same measure for GUCCACGUUCACGUGCGCGUGAAAGAGAGAAGUGAACCAGAGAAACACACGUUGUGGUAUAUUACCUGGUA: 0.253.
Under GUCCUCAUUCACGUGCGCGUGAAAGAGAGAAGUGAACCAGUGAAACACACGUUGUGGUAUAUUACCUGGUA stands 1.28.
For GUCCUCUUUCACGUGCGCGCGAAAGAGAGAAGUGAACCAGAGAAACACACGUUGUGGUAAAUUACCUGGUA, the self-cleavage amounted to 1.15.
The same measure for GUCCUCUUUCACGUGCGCGUGAACGAGAGUAGUGAACCAGAGAAACACACGUUGUGGUAUAUUACCUGGUA: 0.146; for GUCCUCUUUCACGUGCGCGUGAAAGAGAGAAGUGAACCAGAGAAACACACGUUGUGGUAAAUUCCCUGGUA: 0.206.
On to GUCUUCUUUCACGUGCGCGUGAAAGAGAGAAGUGAACCAGAAAAACACACGUUGUGGUAUAUUACCUGGUA, for which the self-cleavage turned out to be 0.27.
Under GUCCUCAUUCACGUGCGCGUGAAAGAGAGAAGUGACCCAGAGAAACACACGUUGUGGUAUAUUACCUGGUA stands 0.573; under GUCCUGUUUCACGUGCGCGUGAAAGAGAGAAGUGAACCAGAGAAACACACGUUGUGGUAUAUUACCAGGUA, 0.15; under GUCCUCUUUCACGUGCGCGUGAAAGAGAGAAGUGAAACAGAGAAACACACGUUGUGGUAUACUACCUGGUA, 0.196.
Under GUCUUCUUUCACGUGCGCGUGAAAGAGAGAAGUGAACCAGAGAAACACACGUUGUGGUAUAUUACAUGGUA stands 0.182; under GUCCUCUUUCACGAGCGCGUGAAAGAGAGGAGUGAACCAGAGAAACACACGUUGUGGUAUAUUACCUGGUA, 0.165; under GUCCUCUUUCACGUCCGCGUGAAAGAGAGAAGUGAACCAGAGAAACACACGUUGUGCUAUAUUACCUGGUA, 0.137.
Take GUCCUCUUUCACGUGCGCGUGAAAGAGAGAAGUGAAGCAGAGAAAUACACGUUGUGGUAUAUUACCUGGUA: the self-cleavage worked out at 0.122.
Under GUCCUCUUUCACGUGCGCGUGAAAGAUAGAAGUGAACCAGAGAAACCCACGUUGUGGUAUAUUACCUGGUA stands 0.157; under GUCCUCUUUCACGUGCGCGUGAAAGAGAGAAGUGCACCAGAGAAACACACGUUGUGGUAUAUUACCUGUUA, 0.189.
The same measure for GUCCUCUUUCACGUGCGCGUGAAAGAGAGAAGUGAACCAGAGAAACACACGAUGUGGUAUUUUACCUGGUA: 0.094.
As to GUCCUCUUUCACGUGCGCGUGAAAGAGAGCAGUGAACCAGAGUAACACACGUUGUGGUAUAUUACCUGGUA, the self-cleavage was found to be 0.128.
As for GUCCUCUUUCACGUGCGCGUGAAAGAGAGAAGUGAACCAGAGAUACACACGUUGUGGUAUAUAACCUGGUA, the self-cleavage is 0.141.
